Numbering of substitutions follows the chain as printed.
T1: human CEA protein on the cell surface (human, UniProt P06731 35-685)
T1 construct: whole, on cells; also called CEACAM-5; CD66e
T1 sequence (looked up): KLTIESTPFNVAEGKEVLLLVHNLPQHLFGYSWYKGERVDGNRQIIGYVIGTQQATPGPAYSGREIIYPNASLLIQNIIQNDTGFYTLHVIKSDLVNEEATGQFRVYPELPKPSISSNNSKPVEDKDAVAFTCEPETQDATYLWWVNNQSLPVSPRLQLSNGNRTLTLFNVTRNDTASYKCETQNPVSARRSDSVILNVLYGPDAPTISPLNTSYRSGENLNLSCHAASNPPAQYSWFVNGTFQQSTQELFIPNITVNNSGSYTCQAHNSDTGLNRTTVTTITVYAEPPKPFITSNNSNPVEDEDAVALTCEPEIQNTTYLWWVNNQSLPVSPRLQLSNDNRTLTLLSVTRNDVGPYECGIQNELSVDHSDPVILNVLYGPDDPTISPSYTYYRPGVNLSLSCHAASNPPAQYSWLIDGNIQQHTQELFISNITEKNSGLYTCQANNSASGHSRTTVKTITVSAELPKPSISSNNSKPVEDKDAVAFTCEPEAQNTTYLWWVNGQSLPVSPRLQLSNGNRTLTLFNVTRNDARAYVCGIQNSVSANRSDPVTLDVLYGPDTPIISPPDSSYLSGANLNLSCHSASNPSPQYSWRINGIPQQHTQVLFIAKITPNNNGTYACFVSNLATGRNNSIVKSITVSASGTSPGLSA

T2: monkey CEA expressed on CHO cell surface (cynomolgus monkey)
T2 construct: also called cynoCEA-CHO; monkey CEA proteins on the cell surface
T2 chain: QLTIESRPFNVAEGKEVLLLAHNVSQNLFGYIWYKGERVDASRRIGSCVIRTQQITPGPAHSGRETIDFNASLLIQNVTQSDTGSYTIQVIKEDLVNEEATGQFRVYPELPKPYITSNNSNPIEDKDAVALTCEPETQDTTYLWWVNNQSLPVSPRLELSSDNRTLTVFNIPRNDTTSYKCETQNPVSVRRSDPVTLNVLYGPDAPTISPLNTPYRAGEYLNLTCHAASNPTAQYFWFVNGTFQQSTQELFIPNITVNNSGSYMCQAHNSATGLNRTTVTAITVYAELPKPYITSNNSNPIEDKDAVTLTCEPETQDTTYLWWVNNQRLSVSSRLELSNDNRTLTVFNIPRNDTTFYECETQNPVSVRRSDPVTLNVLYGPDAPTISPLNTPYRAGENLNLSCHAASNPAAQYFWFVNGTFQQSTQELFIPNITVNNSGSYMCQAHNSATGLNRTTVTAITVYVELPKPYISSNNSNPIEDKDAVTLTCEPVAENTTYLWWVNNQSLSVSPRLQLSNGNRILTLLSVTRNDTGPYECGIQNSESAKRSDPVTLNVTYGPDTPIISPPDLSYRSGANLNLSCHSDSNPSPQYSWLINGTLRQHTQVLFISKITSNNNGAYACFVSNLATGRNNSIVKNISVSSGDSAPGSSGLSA

B1: Hu103-4 (antibody, human IgG1, lambda)
heavy: not shown
light: ELVVTQSPSASASLGASVKLTCTLSSQHSTYTIEWYQQQPEKGPRYVMELKKDGSHSTGDGIPDRFSGSSSGAERYLTISSLQSEDEADYYCGVGNTIKEQFVYVFGGGTKLTVLGQPKANPTVTLFPPSSEELQANKATLVCLISDFYPGAVTVAWKADGSPVKAGVETTKPSKQSNNKYAASSYLSLTPEQWKSHRSYSCQVTHEGSTVEKTVAPTECS
B2: Hu103-13 (antibody, human IgG1, lambda)
heavy: not shown
light: B1 light with V4L, G43P, Y91I
B3: Hu103-9 (antibody, human IgG1, lambda)
heavy: not shown
light: B1 light with V4L, Y36H, V47L
B4: Hu103-12 (antibody, human IgG1, lambda)
heavy: not shown
light: B1 light
B5: Hu103-7 (antibody, human IgG1, lambda, V domains shown)
VH: EVQLVQSGSELKKPGASVKVSCKASGYTFTTYGVIWVRQAPGQGLEWMGWINTYSGVPTYADDFKGRFVFSLDTSVSTAYLQISSLKAEDTAVYYCARKKTLTTVTPWFAYWGQGTLVTVSS
VL: ELVVTQSPSASASLGASVKLTCTLSSQHSTYTIEWYQQQPEKPPRYVMELKKDGSHSTGDGIPDRFSGSSSGADRYLTISSLQSEDEADYICGVGNTIKEQFVYVFGGGTKLTVLG
B6: Hu103-21 (antibody, human IgG1, lambda)
heavy: not shown
light: B1 light with V4L, G43P, Y91I
B7: Hu103-17 (antibody, human IgG1, lambda)
heavy: not shown
light: B1 light with V4L, Y36H, V47L
B8: Hu103-6 (antibody, human IgG1, lambda)
heavy: not shown
light: B1 light with G43P, Y91I
B9: Hu103-14 (antibody, human IgG1, lambda)
heavy: not shown
light: B1 light with G43P, Y91I
B10: Hu103-15 (antibody, human IgG1, lambda)
heavy: not shown
light: B1 light with G43P, E74D, Y91I
B11: Hu103-10 (antibody, human IgG1, lambda)
heavy: not shown
light: B1 light with V4L, V47L
B12: Hu103-20 (antibody, human IgG1, lambda)
heavy: not shown
light: B1 light
B13: Hu103-22 (antibody, human IgG1, lambda)
heavy: not shown
light: B1 light with G43P, Y91I
B14: Hu103-23 (antibody, human IgG1, lambda)
heavy: not shown
light: B1 light with G43P, E74D, Y91I
B15: Hu103-19 (antibody, human IgG1, lambda)
heavy: not shown
light: B1 light with V4L
B16: Hu103-5 (antibody, human IgG1, lambda)
heavy: not shown
light: B1 light with V4L, G43P, Y91I
B17: Hu103-18 (antibody, human IgG1, lambda)
heavy: not shown
light: B1 light with V4L, V47L
B18: Hu67-7 (antibody, V domains shown)
VH: EVQLVQSGAEVKKPGESLKISCKGSGYSFTDYHMNWVRQMPGKGLEWMGDINPDIGGTSYNQNFKGQVTISADKSISTAYLQWSSLKASDTAMYYCARWDFDSFANWGQGTLVTVSS
VL: EIVMTQSPATLSVSPGERATLSCRASESVSIIGTNLIHWYQQKPGQAPRLLIYHASNLETGIPARFSGSGSGTEFTLTISSLQSEDFAVYYCLQSRKIPYTFGGGTKVEIKR
B19: Hu67-11 (antibody, human IgG1, kappa, V domains shown)
VH: B18 VH with R38K, Q67K, A72V
VL: DIVMTQSPDSLAVSLGERATINCRASESVSIIGTNLIHWYQQKPGQPPKLLIYHASNLETGVPDRFSGSGSGTDFTLTISSLQAEDVAVYYCLQSRKIPYTFGGGTKVEIKR
B20: Hu67-12 (antibody, V domains shown)
VH: B18 VH with R38K, Q67K, A72V
VL: B18 VL
B21: Hu67-5 (antibody, human IgG1, kappa, V domains shown)
VH: EVQLVQSGAEVKKPGASVKVSCKASGYTFTDYHMNWVRQAPGQRLEWMGDINPDIGGTSYNQNFKGRVTITRDTSASTAYMELSSLRSEDTAVYYCARWDFDSFANWGQGTLVTVSS
VL: DIVMTQSPSSLSASVGDRVTITCRASESVSIIGTNLIHWYQQKPGKPPKLLIYHASNLETGVPSRFSGSGSGTDFTLTISSLQPEDFATYYCLQSRKIPYTFGGGTKVEIKR
B22: Hu67-1 (antibody, human IgG1, kappa, V domains shown)
VH: B21 VH
VL: B19 VL
B23: Hu47-10 (antibody, human IgG1, kappa, V domains shown)
VH: EVQLVQSGSELKKPGASVKVSCKASGYTFTTYGMSWVKQAPGQGLKWMGWINTYSGVPTYADDFKGRFVFSLDTSVSTAYLQISSLKAEDTAVYYCARRGNYGRWDFDVWGQGTTVTVSS
VL: EIVLTQSPDFQSVTPKEKVTITCSVSSTISSSNLHWYQQKPDQSPKPLIYGTSNLASGVPSRFSGSGSGTDYTLTINSLEAEDAATYYCQQWSIYPLTFGQGTKLEIKR
B24: Hu47-6 (antibody, human IgG1, kappa, V domains shown)
VH: B23 VH with K38R
VL: B23 VL

target: T1, human CEA protein on the cell surface; assay: FACS, MKN45 cells
Method: (§1) In order to detect the binding of the antibody to the CEA protein on the cell surface, the binding activity of the antibody was determined by FACS using cells expressing CEA on the cell surface. Cells were harvested and centrifuged at 400 g at 4° C. for 5 min. Pre-cooled PBS containing FBS at final concentration 10% was added, and the mixture was centrifuged at 400 g at 4° C. for 5 min; the procedures were repeated twice. The cells were seeded into a 96-well plate at 10⁵ cells/well, and 100 μL of gradient diluted antibody solution was added to each well. The plate was incubated at 4° C. for 60 min and centrifuged, and the supernatant was removed. 250 μL of pre-cooled PBS containing FBS at final concentration 10% was added to each well to resuspend the cells, and the suspension was centrifuged at 400 g at 4° C. for 5 min, followed by the removal of the supernatant; the procedures were repeated twice. 50 μL of 1:200 diluted secondary antibody Alexa Fluor@488 goat anti-human IgG (H+L) (Lifetechologies, Cat #A11013) was added. […] 250 μL of pre-cooled PBS containing FBS at final concentration 10% was added to each cell to resuspend the cells, and the suspension was centrifuged at 400 g at 4° C. for 5 min; the procedures were repeated twice. 100 μL of pre-cooled PBS was added to each well to resuspend the cells. The plate was analyzed by a flow cytometer (BD, FACSverse) for fluorescence signal values.

B1 and B2 are within 1.5-fold of each other in EC50: 2.62 nM for the first, 2.53 nM for the second.

B3 and B4 are within 1.5-fold of each other in EC50: 2.95 nM for the first, 2.38 nM for the second.

Going from B5 to B6, the EC50 falls from 2.2 nM to 1.34 nM (1.6-fold). The second is the more potent here.

Going from B7 to B8, the EC50 falls from 2.92 nM to 1.27 nM (2.3-fold). The second is the more potent here.

B9 and B10 are within 1.5-fold of each other in EC50: 2.41 nM for the first, 2.13 nM for the second.

B11 and B12 are within 1.5-fold of each other in EC50: 2.23 nM for the first, 2.19 nM for the second.

B13 and B14 are within 1.5-fold of each other in EC50: 3.64 nM for the first, 2.9 nM for the second.

B15 and B16 are within 1.5-fold of each other in EC50: 2.42 nM for the first, 2.38 nM for the second.

B17 and B18 are within 1.5-fold of each other in EC50: 2.75 nM for the first, 3.88 nM for the second.

B19 and B20 are within 1.5-fold of each other in EC50: 2.26 nM for the first, 3.2 nM for the second.

B21 and B22 are within 1.5-fold of each other in EC50: 2.86 nM for the first, 2.46 nM for the second.

B23 and B24 are within 1.5-fold of each other in EC50: 2.27 nM for the first, 2.5 nM for the second.

Target: T2, monkey CEA expressed on CHO cell surface
Assay: FACS, cynoCEA-CHO cells
Method: as §1

B1 and B2 are within 1.5-fold of each other in EC50: 1.32 nM for the first, 1.01 nM for the second.

B3 and B4 are within 1.5-fold of each other in EC50: 1.61 nM for the first, 1.08 nM for the second.

B5 and B6 are within 1.5-fold of each other in EC50: 1.62 nM for the first, 1.17 nM for the second.

B7 and B8 are within 1.5-fold of each other in EC50: 1.52 nM for the first, 1.56 nM for the second.

B9 and B10 are within 1.5-fold of each other in EC50: 1.37 nM for the first, 1.36 nM for the second.

B11 and B12 are within 1.5-fold of each other in EC50: 1 nM for the first, 0.98 nM for the second.

B13 and B14 are within 1.5-fold of each other in EC50: 1.02 nM for the first, 0.93 nM for the second.

Compared with B15, B16 is 1.5-fold higher in EC50: 0.96 nM for the first, 1.47 nM for the second.

First: B17
Second: B18
The EC50 of the first is 8.1-fold lower: 0.89 nM for the first, 7.2 nM for the second.

B19 and B20 are within 1.5-fold of each other in EC50: 4.66 nM for the first, 5.31 nM for the second.

B21 and B22 are within 1.5-fold of each other in EC50: 3.5 nM for the first, 4.57 nM for the second.

B23 and B24 are within 1.5-fold of each other in EC50: 0.27 nM for the first, 0.3 nM for the second.

Source: patent publication US20230055408A1 (JIANGSU HENGRUI MEDICINE, published 2023)
